{"source": "the DeepSol protein solubility set"}
{"assay": "soluble on expression in E. coli; label from the status in PepcDB or PDB records"}
{"sequence": "MNTSELETLIRTILSEQLTTPAQTPVQPQGKGIFQSVSEAIDAAHQAFLRYQQCPLKTRSAIISAMRQELTPLLAPLAEESANETGMGNKEDKFLKNKAALDNTPGVEDLTTTALTGDGGMVLFEYSPFGVIGSVAPSTNPTETIINNSISMLAAGNSIYFSPHPGAKKVSLKLISLIEEIAFRCCGIRNLVVTVAEPTFEATQQMMAHPRIAVLAITGGPGIVAMGMKSGKKVIGAGAGNPPCIVDETADLVKAAEDIINGASFDYNLPCIAEKSLIVVESVAERLVQQMQTFGALLLSPADTDKLRAVCLPEGQANKKLVGKSPSAMLEAAGIAVPAKAPRLLIALVNADDPWVTSEQLMPMLPVVKVSDFDSALALALKVEEGLHHTAIMHSQNVSRLNLAARTLQTSIFVKNGPSYAGIGVGGEGFTTFTIATPTGEGTTSARTFARSRRCVLTNGFSIR", "soluble on expression in E. coli": "not soluble"}
{"sequence": "MNTYAQESKLRLKTKIGADGRCVIEDNFFTPPFKLMAPFYPKDDLAEIMLLAVSPGMMRGDAQDVQLNIGPNCKLRITSQSFEKIHNTEDGFASRDMHIVVGENAFLDFAPFPLIPFENAHFKGNTTISLRSSSQLLYSEIIVAGRVARNELFKFNRLHTKISILQDEKPIYYDNTILDPKTTDLNNMCMFDGYTHYLNLVLVNCPIELSGVRECIEESEGVDGAVSETASSHLCVKALAKGSEPLLHLREKIARLVTQTTTQKVLEHHHHHH", "soluble on expression in E. coli": "soluble"}
{"sequence": "MNVDEDCYFASLTHGLNTDCRRANAKMKETLKNYNFSAFLVEQNCLRCPNNDCNLSFVLILQKTEFFRLKRDVVFEVRPTIVVHRSFKELVSADRKIRQDITEKNTVGVQASVETVNKFVDACPSICNIQSQTDIMAEKMHIGIQTEEVKFVSEISALGITEVECQNVFPTSFIKTEPVSTSPVRTMEVQQDNDDDDVMFIEIRPRIHEFPSTREIKQEENTTEDTVHLEKVIPEDSVRDVKDEPISEPVEQETSSSSISKELGDSGSSKFSDVADNHTASLNLSMLSQRSTVTSSSISQSIPTPRGRDTPSAAKRAKFSDVEMCRICWDVTFFTTLEEYCNHVQDRHCSVARFKCSSCERKFWDIRSGTQHLKAHNEDGAGNSISHILPEISEEHLSKFINVANQCYPETFRNTQSEKILDIINALP", "soluble on expression in E. coli": "not soluble"}
{"sequence": "MNVLIIEDDPMVDFIHRNYLEKLNLFDRIISSDSMKAVQSILTDYAIDLILLDIHITDGNGIQFLEKWRTQHIPCEVIIISAANDGNIIRDGFHLGIIDYLIKPFTFERFQESIQQFVTHREHLANQQLEQAQIDQLKCLTSKKDTKNKQLLEKGLSESTFQWIMENIKVFDQPFTIQELASACHLSHVSVRKYIAYLEENKQLNSQQIFTKVGRPYRVYW", "soluble on expression in E. coli": "not soluble"}
{"sequence": "MNVLVIGRGGREHALAWKFAQSEKVEKVYVAPGNEGMRDVATPIDIDENDFDALVLFAKENHVELTFVGPEIPLMNGIVDRFKEEGLRVFGPNKAAAVIEGSKAFTKELMKKYNIPTAAYETFTDYEEAVQYIEKVGAPIVIKADGLAAGKGVTVAMTLEEALQAAKEMLQDVKFGEASKKVVIEEFLDGQEFSLMAFVNGTTVHPMVIAQDHKRAFDGDKGPNTGGMGAYSPVPQISESAVQEAIETVLYPTAKAMIQENRSFTGILYAGLILTNDGPKVIEFNARFGDPETEVVLPRLENDLVDVCNAVLDESELTLQWSDEAVIGVVLAAKGYPEAYKKGDIIKGLDALQDVIVFHAGTAMKRGDFVTNGGRVLFVACKANSLQEAKDKVYKEIGKIESDVLFYRSDIGYRAIGHEMTRS", "soluble on expression in E. coli": "not soluble"}
{"sequence": "MNVNIDSEQLFTEEKPKDYAQPEVLCHTFELLSNLHKLLPNRTVEVLHSYRSEEDKRKCEKPEFSGIEKILARHQLPKEINLSPKPSHVPSWKRKIINNISGNWKKCRLWQKSIYEPPMGTIIVRWTKKNLQPSEDLKSVIQRLSALGPIISVTPCGRESAVVVFRDAASACKAVSAFQTMSADSMFHCSWQHRFMSKNKTWSRRYPSKIHAEKKEKHP", "soluble on expression in E. coli": "not soluble"}
{"sequence": "MNVSTSTFQTRRRRLKKVEEEENAATLQLGQEFQLKQINHQGEEEELIALNLSEARLVIKEALVERRRAFKRSQKKHKKKHLKHENANDETTAVEDEDDDLDEDDVNADDDDFMHSETREKELESIDVLLEQTTGGNNKDLKNTMQYLTNFSRFRDQETVGAVIQLLKSTGLHPFEVAQLGSLACDTADEAKTLIPSLNNKISDDELERILKELSNLETLY", "soluble on expression in E. coli": "soluble"}
{"sequence": "MNYGNNGGGQWQPRGNNNWRPQGRGRGGGGWKGNDNRGGYRGGSSNDGGWSNFRDDGNLNFASPYQANRGNFRGNYRGGGGGGGGNQNNYGNRGRGRGGFDRGRGGGGGGNKNFGPIDANKCIIPSMWNNPWDALEKEYEQEYGVAITEKVTDPSPSPSSAEETTA", "soluble on expression in E. coli": "not soluble"}
{"sequence": "MNYHVYHSIDVVNGPGTRCTLFVSGCEHNCKGCYNKSTLNPNSGHLFTKELEDKIIADLNDTRIPRRGLSLSGGDPLHPMNCESVLKLVKRVKSECENKDIWMWTGYTLSELNPTQKEIVDLIDTLIDGRFEQDKADPSLDWRGSSNQIIHTFNVLLEHHHHHH", "soluble on expression in E. coli": "not soluble"}
{"sequence": "MNYSLKQLKVFVTVAQEKSFSRAGERIGLSQSAVSHSVKELENHTGVRLLDRTTREVVLTDAGQQLALRLERLLDELNSTLRDTGRMGQQLSGKVRVAASQTISAHLIPQCIAESHRRYPDIQFVLHDRPQQWVMESIRQGDVDFGIVIDPGPVGDLQCEAILSEPFFLLCHRDSALAVEDYVPWQALQGAKLVLQDYASGSRPLIDAALARNGIQANIVQEIGHPATLFPMVAAGIGISILPALALPLPEGSPLVVKRITPVVERQLMLVRRKNRSLSTAAEALWDVVRDQGNALMAGREGDPLYQI", "soluble on expression in E. coli": "soluble"}
{"sequence": "MPAALIKDFLLTQGLKLPLDEVRAAYLTAQTVMDMGTASIDRSVLWRSDEGWKLADYLSCDNVREDALKRLFMALDSVFSRSTGVRSAAVYALMPSENQAFQLICLSRQGEVLENLWDLDEAAGKVSLACRSAQSGWMNVASDVRRWLDLGELSGERNHASAAQISIPVCTESGGVLGVVHVEFECAECAGTAAQVEWVALALALSEPLKLLLGMSAGKDGSEDV", "soluble on expression in E. coli": "not soluble"}
{"sequence": "MPADTRPAAIVLMGPTASGKSQLAIDIAKRWGGEVISVDSVLVYRGLDIGTAKPNAAMRASVPHHLIDICEPWETYSAADFAHDARAAIDMIVRRGALPILTGGTGLYFRALLAGLSDMPPAHPEIRAMIAAEAKRDSWAALHTRLAEVDAITAARIHATDPQRIQRALEVYLVSGQSMSDWQNQPPKQRLPLRVLKLVLAPTHRKVLHFRIAQRFKAMLDNGLLAEVNALRTHPSIHAMARPLDLPAMRAVGYRQCWEHLDGMYTAEMLYQRSVAATRQLAKRQLTWLRGELDALWFDPEHDQSRIEKVMEAFLNRLEHHHHHH", "soluble on expression in E. coli": "not soluble"}
{"sequence": "MPAGFTHFRLVTRNNMKSLTTETALDILIAWLQDNIDCGSGIIFDNDEDKTDSAALLPCIEQAREDVRTLRHLQLLHQNR", "soluble on expression in E. coli": "soluble"}
{"sequence": "MPALDLIRPSVTAMRVIASVNAEFARELKLPPHIRSLGLISADSDDVTYIAADEATKQAMVEVVYGRSLYAGAAHGPSPTAGEVLIMLGGPNPAEVRAGLDAMVANIENGAAFQWANDAENTAFLAHVVSRTGSYLSSTAGITLGDPMAYLVAPPLEATYGIDAALKSADVQLVTYVPPPSETNYSAAFLTGSQAACKAACNAFTDAVLEIARNPIQRA", "soluble on expression in E. coli": "not soluble"}
{"sequence": "MPATTSIPPVTAPGTGGEASSFNVDELIQYVLQGKPLSEPQVARLCQKAREVLEKEENVHTVRAPVTVCGDIHGQFHDLLELLKIGGLPPDTNYLFMGDYVDRGYYSVETVTLLLLFKIRYPERVQILRGNHESRQITQVYGFYDECVRKYGSANVWKLLTDLFDYLPLAAVVENEIFCLHGGLSPTLDSLAHIRSLERVQEVPHEGPMCDLLWSDPEDKDGWGISPRGAGFTFGADITEQFCHNNGLKTIARAHQLVAEGYSWAHSDKLVTIFSAPNYCYRCGNLAGLLELDEHMNKCFFQFDPAPRRGEAQVSKKTPDYFL", "soluble on expression in E. coli": "not soluble"}
{"sequence": "MPDDKAVNGRRDFLRKTLTVIPAVTLAGYGVGHAMQTPAAEQDKPRERYQPRFFTNTEWAFVNAAVARLIPSDDNGPGAIEAGVPEFIDRQMETPYGHGALWYMQGPFVTDAAPEFGHQLKLVPRDIYRVGIAALERWSKANQGKPFAELEPSAQDDILQRLEAGQIDLQDLPAKLLFGQLLQNTHEGFFSDPQHGGNRGLVGWKLVGFPGARADFMDWADRGEKYPFPPVAISGERG", "soluble on expression in E. coli": "not soluble"}
{"sequence": "MPDGDFITLDRVEKVFDVRRKTGFLRSERRRVRAVDSLSFTVARGEMVGYIGPNGAGKSTTIKMLTGILTPSGGRLRVAGIDPSRERTRLAARIGVVFGQRTTLWWDLPLIDSYRLMHRMYRIPDGRYRENLDRCVELLELGDLLDVPVRQLSLGQRMRGDIAAALLHDPEVLYLDEPTIGLDVISKARVREFLRELNAERGTTVLLTTHDLQDIEQLCGRVMVIDHGRLMYDGPLAGLHEVGDSERTLVVDLARELPPIEAAPARVVKVEGPRQWLAFPASESAAPLVARIAAAYPLVDLSVREPDIEAVIAKMLQSMGDTPQPPPEQAEHVVSLEHHHHHH", "soluble on expression in E. coli": "soluble"}
{"sequence": "MPDLFFVTLYDRQDLLKESMTFLNSEWPRSDGSREHSQKKSCRQSPPMSFLLLNKENDEILGHSRITHLPNRDHALWIESVMIKKDQRGLGLGKFLMKSTEKWMTEKGFNEAYLSTDDQCRFYESLGYEKCDPIVHSTTATCIFPAMNHFQNAAASNPSFLSKIAQPSASSTVSASAPPPPPPPPMAPKMVTRSTSPIVDVNTIDHQYMRKWLKPTE", "soluble on expression in E. coli": "soluble"}
{"sequence": "MPDQISVSEFVAETLEDYKAPTASSFTRTAQCRNTAAAIEEDAVTYDDVHVNFTREEWNLLHPSQKSLYKDVMLETYWNLTVIGYTWENHHIERHCQSSRRNERFSLHCQLP", "soluble on expression in E. coli": "not soluble"}
{"sequence": "MPDQPSHNPAEHTTGEAPAPDALRADARRNRERVLEAAREVFSARGVDAPMSAVARRAGVGVATLYRRFPTRSSLVAAAFDDQLTVCAAAFDEALADPDPGHGLYTLLRKVCTTLVTDRGFETVFMAGFPASLDYDRERACAEERLAHLVRRARDAGRLREDFSPADIPLLLLAVSGLASQPPETAVPAAHRLLTYLFQSFQADPPPRPAPLPPAPTLDLSGLHRPAERP", "soluble on expression in E. coli": "not soluble"}
{"sequence": "MPDRPQHPTASRQSSMVSWNHGAAGWLHCVQCGSATNPTACLDWLPPIHARSGPMYAEHDVVVLTRDVPDKSLIAGDVGAVVGRYAAGGYEVDFTAANGCTVAVVTLAGDDIRPRRRREIPHVREVA", "soluble on expression in E. coli": "not soluble"}
{"sequence": "MPEPDKQATRKKRTTSSLTDSTVFDPAKQVLWSRPGYLVRRLNQIHYALFYEECKTQNVTPVQYGVLTALSLSPWLDQTAIGMELGLDRTTTADVIKRLQERGLVERRVNPNDKRSRQAVITQEGLRIMGLLQGGMARAQQRLLEPLSPRNREIFMKLLSTLVDANNQYSRTALKAM", "soluble on expression in E. coli": "not soluble"}
{"sequence": "MPFKDQLFLASQYLAPHHLVSRLMGRAADCRAPEIKNRMIARFVRRYNVDMSEALVEDPLAYASFNDFFTRALKPDARPLDDEPGAALCPADGAISQIGAIDNGRIFQAKGHSFGLTDLLGGDAERAAPFAGGQFATIYLSPRDYHRVHMPLAGTLREMVHVPGRLFSVNPLTARSVPELFARNERVACLFDTEHGPMALVLVGAMIVASIETVWAGLVTPHKRQVRSVRYDAAARAPIHLDKGAEMGRFKLGSTVIVLFGPKRLRWLDLPSVRGPVRMGETLALPASTAISFPESELEHHHHHH", "soluble on expression in E. coli": "not soluble"}
